Here are results for seven substances from article PMC7010293.

Holding throughout (assay): SDS-PAGE under unheated, non-reducing conditions with Western blot
(In general: In western blotting, separated proteins are transferred to a membrane and probed.)

Assay [1] deals with recombinant non-structural protein 1 (rNS1) of Dengue virus serotype 3, 6xHis-tagged (Dengue virus 3, Sri Lanka strain).
The target in assay [2] is recombinant non-structural protein 1 (rNS1) of West Nile virus, RQ10NK, 6xHis-tagged (West Nile virus, NY99 strain).
The target in assay [3] is recombinant non-structural protein 1 (rNS1) of Dengue virus serotype 2, 6xHis-tagged (Dengue virus 2, New Guinea C strain).
The target in assay [4] is recombinant non-structural protein 1 (rNS1) of Dengue virus serotype 4, 6xHis-tagged (Dengue virus 4, TC25 strain).
Assay [5] has as its target recombinant non-structural protein 1 (rNS1) of Zika virus, 6xHis-tagged (Zika virus, SPH2015 strain).
Assay [6] addresses recombinant non-structural protein 1 (rNS1) of Tick-borne encephalitis virus, 6xHis-tagged (Tick-borne encephalitis virus, Neudoerfl strain).
Assay [7] deals with recombinant non-structural protein 1 (rNS1) of Dengue virus serotype 1, 6xHis-tagged (Dengue virus 1, Hawaii A strain).

Values joined by “and” are separate entries in the source; they are usually repeats but may differ in a detail not shown here. Equal entries are not always repeated.

What is called stoichiometry N is a count of units in the complex or per binding partner. Take “recombinant non-structural protein 1 (rNS1) of Dengue virus serotype 3, 6xHis-tagged (natural protein)”: the stoichiometry N in assay [1] was determined as 2.
“recombinant non-structural protein 1 (rNS1) of West Nile virus, RQ10NK, 6xHis-tagged (natural protein)”: the stoichiometry N in assay [2] was 2.
In the case of “recombinant non-structural protein 1 (rNS1) of Dengue virus serotype 2, 6xHis-tagged (natural protein)”, the stoichiometry N in assay [3] was 2.
For “recombinant non-structural protein 1 (rNS1) of Dengue virus serotype 4, 6xHis-tagged (natural protein)”, the stoichiometry N in assay [4] amounted to 2.
Turning to “recombinant non-structural protein 1 (rNS1) of Zika virus, 6xHis-tagged (natural protein)”, the stoichiometry N in assay [5] is 2.
Take “recombinant non-structural protein 1 (rNS1) of Tick-borne encephalitis virus, 6xHis-tagged (natural protein)”: the stoichiometry N in assay [6] is 2 and 6.
On to “recombinant non-structural protein 1 (rNS1) of Dengue virus serotype 1, 6xHis-tagged (natural protein)”, for which the stoichiometry N in assay [7] is 2.
